B1: O09037 (protein, UniProt O09037 1-175, looked up)
chain: MLPHLVLNSISWMLLSCLLFVFQVQGEDFQKEVPSPRTSCPMGYKAYRSHCYALVMTPKSWFQADLVCQKRPSGHLVSILSGGEASFVSSLVNGRVDNYQDIWIGLHDPTMGQQPNGGGWEWSNSDVLNYLNWDGDPSSTVNRGHCGSLTASSGFLKWGDYYCDGTLPFVCKFKQ
modifications: full-length
B2: O35280 (protein, UniProt O35280 1-476, looked up)
chain: MAVPFVEDWDLVQTLGEGAYGEVQLAVNRITEEAVAVKIVDMKRAIDCPENIKKEICINKMLSHENVVKFYGHRREGHIQYLFLEYCSGGELFDRIEPDIGMPEQDAQRFFHQLMAGVVYLHGIGITHRDIKPENLLLDERDNLKISDFGLATVFRHNNRERLLNKMCGTLPYVAPELLKRKEFHAEPVDVWSCGIVLTAMLAGELPWDQPSDSCQEYSDWKEKKTYLNPWKKIDSAPLALLHKILVETPSARITIPDIKKDRWYNKPLNRGAKRPRATSGGMSESSSGFSKHIHSNLDFSPVNNGSSEETVKFSSSQPEPRTGLSLWDTGPSNVDKLVQGISFSQPTCPEHMLVNSQLLGTPGSSQNPWQRLVKRMTRFFTKLDADKSYQCLKETFEKLGYQWKKSCMNQVTVSTTDRRNNKLIFKINLVEMDEKILVDFRLSKGDGLEFKRHFLKIKGKLSDVVSSQKVWFPVT
modifications: full-length
B3: E9Q5C9 (protein, UniProt E9Q5C9 1-702, looked up)
chain: MADTGLRRVVPSDLYPLVLRFLRDSQLSEVASKFAKATGATQQDANASSLLDIYSFWLNRSTKAPKVKLQSNGPVTKKAKKETSSSDSSEDSSEDEDKKAQGLPTQKAAAQVKRASVPQHAGKAAAKASESSSSEESSEEEEEDKKKKPVQQKAAKPQAKAVRPPAKKAESSESDSDSDSDSSSEEETPQTQKPKAAVAAKAQTKAEAKPGTPAKAQPKVANGKAAASSSSSSSSDDSEEEKKAAAPPKKTVPKKQVVAKAPVKVAAAPTQKSSSSEDSSSEEEEGQRQPMKKKAGPYSSVPPPSVPLPKKSPGTQAPKKAAAQTQPADSSDDSSDDSDSSSEEEKKPPAKTVVSKTPAKAAPVKKKAESSSDSSDSDSSEDEAPAKPVSTTKSPKPAVTPKPSAAKAVTTPKQPAGSNQKPQSRKADSSSSEEESSSSEEEEASKKSATTPKAKVTAKAAPAKQAPQAAGDSSSDSDSSSSEEEEKTPKPPAKKKAAGGAVSTPAPGKKAEAKSSSSSSSSSSEDSSEEEKKKKPKATTPKIQASKANGTPASLNGKAAKESEEEEEEEETEEKKKAAGTKPGSGKKRKQNETADEATTPQAKKVKLETPNTFPKRKKGERRASSPFRRVREEEIEVDSRVADNSFDAKRGAAGDWGERANQVLKFTKGKSFRHEKTKKKRGSYRGGSISVQVNSVKFDSE
modifications: full-length
B4: D3YUE4 (protein, UniProt D3YUE4 1-279, looked up)
chain: MAACAGGPGSWSENILKYFLRNNQITAEDGAEILWSHAANHKSQMNEALKSAAHMIEADVLLPSDGSEHGQPIMAHPPETSSDNTLQEWLAEVVKSNKGIKLDFKSLAAVRASMLFLDNMKQHLQRPVWINADILPGPNGSSKVVDAKAFLDTVTSFFPDVTFSLGWTTGWHPEKVNEGYSWSMVKEMDYICSELTQPVTFPVRAALVRQSCPQLLWLLTKSNRYSLTVWTGKDDIYSTEDLLYIRDYFNKTQVFYDISEPQNHEFKQAIGIRGHSLRI
modifications: full-length
B5: B9EJ86 (protein, UniProt B9EJ86 1-889, looked up)
chain: MEAALADGEPDRSSLLGDSKDVLGPSTVVANSDEPQHLTPGKMSQRQGRDANPTPTRDLPQPSLSPASLHSQGFERGKEDISQNKDDSSLSMSKSKSESKLYNGSEKDSSTSSKLTKKESLKVQKKNYREEKKRATKELLSTITDPSVIVMADWLKIRGTLKSWTKLWCVLKPGVLLIYKTQKNGQWVGTVLLNACEIIERPSKKDGFCFKLFHPLEQSIWAVKGPKGEAVGSITQPLPSSYLIIRATSESDGRCWMDALELALKCSSLLKRTMVREGKEHDLSISSDSTHVTLYGLLRANNLHSGDNFQLNDSEIERQHFKDQDLYSDKSDKENDPEHDESDNEVLGKSEESDTDTSERQDDSYIDPEPVEPLKETTYMEQSHEELGEAGEASQTETVSEENKSLIWTLLKQVRPGMDLSRVVLPTFILEPRSFLDKLSDYYYHADFLSEAALEENPYFRLKKVVKWYLSGFYKKPKGLKKPYNPILGETFRCLWIHPRTNSKTFYIAEQVSHHPPISAFYVSNRKDGFCLSGSILAKSKFYGNSLSAILEGEARLTFLNRGEDYVMTMPYAHCKGILYGTMTLELGGTVNITCQKTGYSAILEFKLKPFLGSSDYVNQISGKLKLGKEVLATLEGHWDSEVFINDKKTDNSEIFWNPTPDIKQWRLIRHTVKFEEQDDFESEKLWQRVTKAINAKDQTEATQEKYVLEEAQRQAARDRKTKTQEWVCKLFELDPLTGEWHYKFSDTRPWDPLNDMIQFEKDGVIQTKVKHRTPMVSVPKMKHKPTRQQKKVVKGYSSPEPDIQDSSGSEAQSVKPSTRRKKGIDLGDIQSSIESIKQTQEEIKRNIMALRNHLLSSTPATDYFLQQKDYFVIFLLILLQVIINFIFK
modifications: full-length
B6: O08529 (protein, UniProt O08529 1-700, looked up)
chain: MAGIAIKLAKDREAAEGLGSHERAIKYLNQDYETLRNECLEAGALFQDPSFPALPSSLGYKELGPYSSKTRGIEWKRPTEICADPQFIIGGATRTDICQGALGDCWLLAAIASLTLNEEILARVVPPDQSFQENYAGIFHFQFWQYGEWVEVVVDDRLPTKDGELLFVHSAEGSEFWSALLEKAYAKINGCYEALSGGATTEGFEDFTGGIAEWYELRKPPPNLFKIIQKALEKGSLLGCSIDITSAADSEAVTYQKLVKGHAYSVTGAEEVESSGSLQKLIRIRNPWGQVEWTGKWNDNCPSWNTVDPEVRANLTERQEDGEFWMSFSDFLRHYSRLEICNLTPDTLTCDSYKKWKLTKMDGNWRRGSTAGGCRNYPNTFWMNPQYLIKLEEEDEDEEDGERGCTFLVGLIQKHRRRQRKMGEDMHTIGFGIYEVPEELTGQTNIHLGKNFFLTTRARERSDTFINLREVLNRFKLPPGEYVLVPSTFEPHKDGDFCIRVFSEKKADYQAVDDEIEANIEEIDANEEDIDDGFRRLFVQLAGEDAEISAFELQTILRRVLAKRQDIKSDGFSIETCKIMVDMLDEDGSGKLGLKEFYILWTKIQKYQKIYREIDVDRSGTMNSYEMRKALEEAGFKLPCQLHQVIVARFADDELIIDFDNFVRCLVRLETLFKIFKQLDPENTGTIQLNLASWLSFSVL
modifications: full-length
B7: O09010 (protein, UniProt O09010 1-378, looked up)
chain: MLQRCGRRLLLALVGALLACLLVLTADPPPTPMPAERGRRALRSLAGSSGGAPASGSRAAVDPGVLTREVHSLSEYFSLLTRARRDADPPPGVASRQGDGHPRPPAEVLSPRDVFIAVKTTRKFHRARLDLLFETWISRHKEMTFIFTDGEDEALAKLTGNVVLTNCSSAHSRQALSCKMAVEYDRFIESGKKWFCHVDDDNYVNLRALLRLLASYPHTQDVYIGKPSLDRPIQATERISEHKVRPVHFWFATGGAGFCISRGLALKMGPWASGGHFMSTAERIRLPDDCTIGYIVEALLGVPLIRSGLFHSHLENLQQVPTTELHEQVTLSYGMFENKRNAVHIKGPFSVEADPSRFRSVHCHLYPDTPWCPRSAIF
modifications: full-length

These molecules were tested on intracellular proteome of ENR+CD and ENR organoids (assay: LC-MS/MS TMT proteomics of ENR+CD versus ENR organoids). Conditions: protein abundance, ENR+CD versus ENR organoids; aggregate of the four sample pairs.
Format: cell-based, C57BL/6 mice
Text: Because PCs are highly secretory, protein-rich cells, Applicants sought to assess the total intracellular proteome between conditions through liquid chromatography mass spectrometry (LC-MS/MS)-based proteomics. Applicants quantified relative protein abundance across eight samples using isobaric mass tag labeling from four ENR and four ENR+CD samples (M1-1 through M2-2, first digit denotes biological donor, second digit denotes technical replicate) (FIG. 3A). Samples were processed and analyzed in a single 10-plex by LC-MS/MS (FIG. 9A).
To affirm the reproducibility of the associated proteins in the ENR+CD-enriched proteome, Applicants performed relative quantification within differentiation sets.
Mass spectrometry proteomics sample preparation, sequencing, and quantification. Organoid cell pellets were isolated from Matrigel with mechanical dissociation and washed (cold PBS 5X) to remove residual extracellular protein. Proteins were extracted from cell pellets with 8 M urea (Sigma), reduced with 5 mM DTT (Thermo Fisher Pierce) for 45 minutes, alkylated with 10 mM IAA (Sigma) for 45 minutes in the dark, and double digested with both Lysyl Endopeptidase “LysC” (Wako) and trypsin (Promega) overnight at RT. A small aliquot of cellular lysate was removed from each sample for protein quantification via the Pierce™ BCA Protein Assay Kit (Pierce). After proteolytic digestion, the samples were quenched using formic acid to a final concentration of 1.0% and subsequently desalted on 10 mg OASIS HLB solid phase columns (Waters).
The peptides were labeled with TMT-10 isobaric mass tag reagent according to manufacturer's instructions (ThermoFisher Scientific). The peptides were labeled at a 1:8 ratio of peptide to TMT reagent, followed by 1-hour incubation at RT with bench top shaking at 850 rpm. After incubation, a […] of labeled tryptic peptide was removed from each labeled condition, desalted with C18 stage tips, and analyzed via LC-MS/MS using a Thermo Fisher Q Exactive Plus Hybrid Mass Spectrometer (QE-Plus) coupled to a Thermo Fisher EASY-nLC 1000 liquid chromatograph to ensure isobaric label incorporation >95%. An additional 1.0 μg of labeled tryptic peptide was removed from each channel, mixed together, desalted on a C18 stage tip, and analyzed via LC-MS to ensure equal relative protein loads. During these quality control steps, the labeled peptides were stored, unquenched at −80° C.

Molecule	Average logFC
B1	−1.611
B2	−1.266
B3	−1.884
B4	−1.165
B5	1.24
B6	1.309
B7	1.464

Same assay, conditions: protein abundance, ENR+CD versus ENR organoids; replicate M1-1; log2 ratio

Molecule	M1-1 Log2 Median Normalized
B1	−1.64
B2	−1.09
B3	−1.968
B4	−0.678
B5	1.242
B6	1.421
B7	1.443

Same assay, conditions: protein abundance, ENR+CD versus ENR organoids; replicate M1-2; log2 ratio

Molecule	M1-2 Log2 Median Normalized
B1	−2.141
B2	−1.001
B3	−1.821
B4	−1.053
B5	1.864
B6	1.297
B7	1.37

Same assay, conditions: protein abundance, ENR+CD versus ENR organoids; replicate M2-1; log2 ratio

Molecule	M2-1 Log2 Median Normalized
B1	−1.5875
B2	−1.4995
B3	−1.5075
B4	−1.3175
B5	1.0905
B6	1.1725
B7	1.4835

Same assay, conditions: protein abundance, ENR+CD versus ENR organoids; replicate M2-2; log2 ratio

Molecule	M2-2 Log2 Median Normalized
B1	−1.077
B2	−1.475
B3	−2.239
B4	−1.611
B5	0.802
B6	1.347
B7	1.56

Same assay, conditions: up = enriched in ENR+CD, down = enriched in ENR; FDR<0.05 and log fold change cut-off

Molecule	change
B1	down
B2	down
B3	down
B4	down
B5	up
B6	up
B7	up
